Consider three substances from PMC8634867.

This assay deals with C10A mutant of Arabidopsis thaliana cytochrome c1, soluble domain (Arabidopsis thaliana). In words: BLI; His6-tagged Cc1 (50 ug/mL) immobilised on Ni-NTA biosensors (Octet RED 96e); Cc at 0.3215-10 uM; 10 mM sodium phosphate pH 7.4, 0.01 uM rabbit serum albumin, 0.01% Triton X-100; both proteins reduced; wavelength shift at equilibrium fitted to a non-linear equation with a linear non-specific term; in duplicate. (In general: In BLI a coated tip is dipped into the sample, and binding shifts an interference pattern.)

On to “human cytochrome c K53Q acetyl-mimetic mutant (from UniProt P99999 1-105) (natural protein)”, for which the dissociation constant (Kd) (as a rule, the free concentration of one partner at which half of the binding sites on the other are occupied at equilibrium, for simple one-to-one binding) was found to be 116 nM.
Then “human cytochrome c K8Q acetyl-mimetic mutant (from UniProt P99999 1-105) (natural protein)”, with 99 nM; and “human cytochrome c, wild-type (from UniProt P99999 1-105) (natural protein)”, with 137 nM.
